Patent CN113480646A (INST BIOPHYSICS CAS; UNIV PEKING FIRST HOSPITAL, dated 2021)

What was measured:
[1] = biological target: T1, 体外纯化的组蛋白H1.4(WT H1.4), fusion protein expressed from pET-28a-WT H1.4 (Homo sapiens (Human), UniProt P10412 1-219); assay: Western blot, purified protein
T1 construct: Expressed in E. coli BL21(DE3) and purified; 100 ng was loaded, denatured, for the Western blot; also called 野生型H1.4

[2] = biological target: T2, 体外纯化的H1.4移码突变蛋白(H1.4 K157E fs*), fusion protein expressed from pET-28a-H1.4 K157E; assay: Western blot, 100 ng purified protein
T2 construct: Expressed in E. coli BL21(DE3) and purified; 100 ng was loaded, denatured, for the Western blot; also called Lys157Glu fs*39; H1.4 K157E移码突变体
T2 chain: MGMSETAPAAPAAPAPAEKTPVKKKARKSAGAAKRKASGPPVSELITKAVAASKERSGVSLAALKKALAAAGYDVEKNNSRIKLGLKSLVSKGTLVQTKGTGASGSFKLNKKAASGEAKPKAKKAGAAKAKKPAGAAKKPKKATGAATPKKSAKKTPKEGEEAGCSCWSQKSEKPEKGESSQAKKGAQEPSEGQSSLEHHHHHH

[3] = biological target: T3, 内源过表达的组蛋白H1.4(WT H1.4), Flag fusion expressed from pFLAG-CMV-WT H1.4 in NIH 3T3 cells; assay: Western blot, lysate of transfected NIH 3T3 cells
T3 construct: Overexpressed in mouse NIH 3T3 cells; Tested as SDS cell lysate (50 ug total protein) by Western blot; also called 野生型H1.4

B1: 特异性结合H1.4移码突变蛋白的单克隆抗体 (hybridoma cell line A1) (antibody, mouse IgG1, kappa, V domains shown)
VH: QIQLVQSGPELKKPGETVKISCKASGYTFTDYSMQWMKQAPGKGLKWMGWIDTGTGEPSYADDFKGRFAFSLETSASTAYLQINNLKNEDTATYFCARRSYGYFAFWGQGTLVAVSA
VL: DVVMTQTPLSLPVSLGDQASISCRSSQNIVHVNGNTYLEWYLQKPGQSPKLLIYKVSNRFSGVPDRFSGSGSGTEFTLKISRVEAEDLGVYYCFQGSHVPFTFGAGTKLELKR
notes: also called H1.4移码突变抗体; H1.4移码突变的抗体
B1: no binding (tested: 100ng) [1]; binds [2]; no binding (tested: 50μg total lysate protein) [3].
